In paper PMC7351741, “Structural basis of seamless excision and specific targeting by piggyBac transposase”:
Values belong to the molecule of their own block, whether it stands above or below them.

Key:
[1] = target: piggyBac transposase (PB), full-length, Trichoplusia ni (Trichoplusia ni); assay: SEC-MALS; purified PB at 4 and 2 mg/ml, Superdex 200 Increase 10/300, 20 mM HEPES pH 7.5, 100 mM NaCl, 1 mM TCEP; no DNA
[2] = target: T1, piggyBac transposase (PB) (Trichoplusia ni, UniProt Q283G1 1-594); assay: cryo-EM; 5 mM Ca2+; Zn2+ in CRD; SNHP: 50 mM Tris-Cl pH 8.0, 100 mM NaCl, 5 mM CaCl2, 1 mM TCEP, mixed 1 h at 25 C; STC: 50 mM Tris-Cl pH 8.0, 500 mM NaCl dialyzed to 200 mM NaCl, 10 mM CaCl2; conditions: protein: recombinant; tags: N-terminal MBP tag removed by TEV; chain copies: 2; hairpin, 35 bp stem, TTAA loop; 2 copies per PB dimer
[3] = target: T1, piggyBac transposase (PB); assay: cryo-EM; 10 mM Ca2+; Zn2+ in CRD; SNHP: 50 mM Tris-Cl pH 8.0, 100 mM NaCl, 5 mM CaCl2, 1 mM TCEP, mixed 1 h at 25 C; STC: 50 mM Tris-Cl pH 8.0, 500 mM NaCl dialyzed to 200 mM NaCl, 10 mM CaCl2; conditions: protein: recombinant; tags: N-terminal MBP tag removed by TEV; chain copies: 2; four annealed oligos, 2 copies of each; S4 pairs with S5+S6 (break between S5 and S6), 5' CCGG flap on S4; S7 pairs with 3' 11 nt of S6; central target TTAA unpaired in the complex

T1 sequence (Q283G1 entry or part of it): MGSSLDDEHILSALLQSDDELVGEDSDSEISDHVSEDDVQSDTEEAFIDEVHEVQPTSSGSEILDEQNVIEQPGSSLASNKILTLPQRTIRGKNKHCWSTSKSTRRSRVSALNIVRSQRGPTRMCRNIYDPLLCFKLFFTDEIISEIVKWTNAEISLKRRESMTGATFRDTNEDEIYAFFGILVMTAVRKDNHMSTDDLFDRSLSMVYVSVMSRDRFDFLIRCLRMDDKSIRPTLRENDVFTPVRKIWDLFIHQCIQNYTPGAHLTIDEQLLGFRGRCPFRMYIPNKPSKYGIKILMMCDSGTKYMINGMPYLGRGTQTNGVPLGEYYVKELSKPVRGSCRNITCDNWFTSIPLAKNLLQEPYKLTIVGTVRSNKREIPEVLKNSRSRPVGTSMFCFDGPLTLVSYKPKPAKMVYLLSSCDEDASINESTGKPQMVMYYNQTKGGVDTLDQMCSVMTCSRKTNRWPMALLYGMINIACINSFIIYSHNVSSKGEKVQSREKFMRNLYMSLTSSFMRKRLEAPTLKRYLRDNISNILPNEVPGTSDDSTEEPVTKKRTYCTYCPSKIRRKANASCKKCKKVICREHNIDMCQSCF

stoichiometry N [1]: 2
Molecule: piggyBac transposase (PB), full-length, Trichoplusia ni (enzyme)

B1: LE35hrpn (SNHP LE hairpin DNA) (structured_DNA)
DNA: CATGCGTCAATTTTACGCAGACTATCTTTCTAGGGTTAACCCTAGAAAGATAGTCTGCGTAAAATTGACGCATG
binding result [2]: binds

B2: LE STC DNA (mixed)
DNA 1: CCGGCCCTAGAAAGATAGTCTGCGTAAAATTGACGCATGCA
DNA 2: TGCATGCGTCAATTTTACGC
DNA 3: AGACTATCTTTCTAGGGTTAAGACTGTGCCGC
DNA 4: GCGGCACAGTC
binding result [3]: binds
